Measured values as given in publication doi:10.1101/2022.02.14.480324.

Legend:
[1] = biological target: T1, His-OsIRO3 (Oryza sativa (rice), UniProt Q10KL8 1-252); experiment: EMSA
T1 sequence: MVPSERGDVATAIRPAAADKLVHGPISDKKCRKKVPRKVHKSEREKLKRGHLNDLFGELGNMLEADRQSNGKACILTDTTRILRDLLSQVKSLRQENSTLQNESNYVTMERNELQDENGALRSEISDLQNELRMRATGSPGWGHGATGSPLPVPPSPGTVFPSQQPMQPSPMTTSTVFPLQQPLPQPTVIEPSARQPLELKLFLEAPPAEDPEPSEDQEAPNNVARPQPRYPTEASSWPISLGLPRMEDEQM

[2] = biological target: T1, His-OsIRO3; experiment: competition
[3] = biological target: T1, His-OsIRO3; experiment: competition; remark: listed apart in the source

Binder	binding result [1]	further results
pOsFIT probe (dsDNA) DNA 1: TCAAGTAGTATTAGTCAATTGGTCATCACATTTCG DNA 2: CGAAATGTGATGACCAATTGACTAATACTACTTGA	no binding	
pOsIRO2 probe (dsDNA) DNA 1: CCTCCCTAGCTTGGCAGAATAGTTAATGTTAATCACCTGATTAAA DNA 2: TTTAATCAGGTGATTAACATTAACTATTCTGCCAAGCTAGGGAGG	binds	
pOsIRO2 unlabeled (Cold-Probe) (dsDNA) DNA 1: CCTCCCTAGCTTGGCAGAATAGTTAATGTTAATCACCTGATTAAA DNA 2: TTTAATCAGGTGATTAACATTAACTATTCTGCCAAGCTAGGGAGG		binding result [2]: binds
mpOsIRO2 (Cold-Probe-m) (dsDNA) DNA 1: CCTCCCTAGCTTGGCAGAATAGTTAATGTTAATGTCCTGATTAAA DNA 2: TTTAATCAGGACATTAACATTAACTATTCTGCCAAGCTAGGGAGG		binding result [3]: no binding
